From patent US20180163176A1 (NANTKWEST, published 2018)

Molecular target: CD33 (UniProt P20138 18-364, limits assumed)
Assay: cell-based or functional assay

CD33, sequence (P20138 18-364 limits assumed): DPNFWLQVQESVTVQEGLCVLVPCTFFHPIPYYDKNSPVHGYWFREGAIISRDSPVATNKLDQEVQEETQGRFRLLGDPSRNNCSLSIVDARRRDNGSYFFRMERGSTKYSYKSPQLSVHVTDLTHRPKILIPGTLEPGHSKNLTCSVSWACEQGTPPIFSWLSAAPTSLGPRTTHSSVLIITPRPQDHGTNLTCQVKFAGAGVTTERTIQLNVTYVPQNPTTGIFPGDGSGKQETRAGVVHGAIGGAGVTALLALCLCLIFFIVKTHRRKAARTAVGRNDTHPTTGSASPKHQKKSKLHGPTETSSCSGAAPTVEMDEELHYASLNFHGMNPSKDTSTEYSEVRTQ

B1: CD33-CAR (other)
chain: MDWIWRILFLVGAATGAHSAQPADIQMTQSPSSLSASVGDRVTITCRASESVDNYGISFMNWFQQKPGKAPKLLIYAASNQGSGVPSRFSGSGSGTDFTLTISSLQPDDFATYYCQQSKEVPWTFGQGTKVEIKGGGGSGGGGSGGGGSQVQLVQSGAEVKKPGSSVKVSCKASGYTFTDYNMHWVRQAPGQGLEWIGYIYPYNGGTGYNQKFKSKATITADESTNTAYMELSSLRSEDTAVYYCARGRPAMDYWGQGTLVTVSSALSNSIMYFSHFVPVFLPAKPTTTPAPRPPTPAPTIASQPLSLRPEASRPAAGGAVHTRGLDPKLCYLLDGILFIYGVILTALFLRVKFSRSADAPAYQQGQNQLYNELNLGRREEYDVLDKRRGRDPEMGGKPRRKNPQEGLYNELQKDKMAEAYSEIGMKGERRRGKGHDGLYQGLSTATKDTYDALHMQALPPR
cytotoxicity against aNK resistant cell lines at 24 hours (flow cytometry assay): > 80%
